{"source": "patent US20220273789A1"}
{"molecular_target": "human IgG (human)", "experiment": "BLI Octet, construct on Ni-NTA sensor, hIgG in solution", "units": {"Kd": "nM", "Response (nm)": "nm", "koff": "s⁻¹", "kon": "M⁻¹ s⁻¹"}}
{"substance": "HSV2-gE_H245R_gI (from UniProt P89475 21-416; P06764 21-256) (receptor)", "Kd": 265, "Response (nm)": 0.842, "koff": 0.00416, "kon": 15700}
{"substance": "HSV2-gE_H245S_gI (from UniProt P89475 21-416; P06764 21-256) (receptor)", "Kd": 866, "Response (nm)": 0.46, "koff": 0.00658, "kon": 7600}
{"substance": "HSV2-gE_H245T_gI (from UniProt P89475 21-416; P06764 21-256) (receptor)", "Kd": 813, "Response (nm)": 0.493, "koff": 0.00605, "kon": 7450}
{"substance": "HSV2-gE_H245V_gI (from UniProt P89475 21-416; P06764 21-256) (receptor)", "Kd": 486, "Response (nm)": 0.745, "koff": 0.00573, "kon": 11800}
{"substance": "HSV2-gE_P317F_gI (from UniProt P89475 21-416; P06764 21-256) (receptor)", "Kd": 8770, "Response (nm)": 0.143, "koff": 0.00166, "kon": 189}
{"substance": "HSV2-gE_P317G_gI (from UniProt P89475 21-416; P06764 21-256) (receptor)", "Kd": 555, "Response (nm)": 0.338, "koff": 0.00429, "kon": 7740}
{"substance": "HSV2-gE_P317I_gI (from UniProt P89475 21-416; P06764 21-256) (receptor)", "Kd": 1000, "Response (nm)": 0.243, "koff": 0.00382, "kon": 3810}
{"substance": "HSV2-gE_P317K_gI (from UniProt P89475 21-416; P06764 21-256) (receptor)", "Kd": 374, "Response (nm)": 0.13, "koff": 0.00136, "kon": 3640}
{"substance": "HSV2-gE_P317L_gI (from UniProt P89475 21-416; P06764 21-256) (receptor)", "Kd": 5110, "Response (nm)": 0.161, "koff": 0.00181, "kon": 354}
{"substance": "HSV2-gE_P317N_gI (from UniProt P89475 21-416; P06764 21-256) (receptor)", "Kd": 500, "Response (nm)": 0.381, "koff": 0.00459, "kon": 9180}
{"substance": "HSV2-gE_P317S_gI (from UniProt P89475 21-416; P06764 21-256) (receptor)", "Kd": 255, "Response (nm)": 0.669, "koff": 0.00358, "kon": 14000}
{"substance": "HSV2-gE_P318D_gI (from UniProt P89475 21-416; P06764 21-256) (receptor)", "Kd": "< 0.001", "Response (nm)": 0.0995, "koff": "< 1e-07", "kon": 5180}
{"substance": "HSV2-gE_P318Q_gI (from UniProt P89475 21-416; P06764 21-256) (receptor)", "Kd": 443, "Response (nm)": 0.152, "koff": 0.00139, "kon": 3150}
{"substance": "HSV2-gE_P318R_gI (from UniProt P89475 21-416; P06764 21-256) (receptor)", "Kd": 794, "Response (nm)": 0.151, "koff": 0.000756, "kon": 952}
{"substance": "HSV2-gE_P318S_gI (from UniProt P89475 21-416; P06764 21-256) (receptor)", "Kd": 9900, "Response (nm)": 0.124, "koff": 0.00504, "kon": 509}
{"substance": "HSV2-gE_P318T_gI (from UniProt P89475 21-416; P06764 21-256) (receptor)", "Kd": 14900, "Response (nm)": 0.174, "koff": 0.00711, "kon": 478}
{"substance": "HSV2-gE_P318Y_gI (from UniProt P89475 21-416; P06764 21-256) (receptor)", "Kd": "< 0.001", "Response (nm)": 0.0215, "koff": "< 1e-07", "kon": 3480}
{"substance": "HSV2-gE_P319L_gI (from UniProt P89475 21-416; P06764 21-256) (receptor)", "Kd": 1390, "Response (nm)": 0.328, "koff": 0.00444, "kon": 3190}
{"substance": "HSV2-gE_R314A_gI (from UniProt P89475 21-416; P06764 21-256) (receptor)", "Kd": 468, "Response (nm)": 0.629, "koff": 0.00557, "kon": 11900}
{"substance": "HSV2-gE_R314D_gI (from UniProt P89475 21-416; P06764 21-256) (receptor)", "Kd": 900, "Response (nm)": 0.385, "koff": 0.00583, "kon": 6480}
{"substance": "HSV2-gE_R314E_gI (from UniProt P89475 21-416; P06764 21-256) (receptor)", "Kd": 1300, "Response (nm)": 0.306, "koff": 0.0058, "kon": 4470}
{"substance": "HSV2-gE_R314F_gI (from UniProt P89475 21-416; P06764 21-256) (receptor)", "Kd": 884, "Response (nm)": 0.325, "koff": 0.0048, "kon": 5430}
{"substance": "HSV2-gE_R314G_gI (from UniProt P89475 21-416; P06764 21-256) (receptor)", "Kd": 572, "Response (nm)": 0.478, "koff": 0.0052, "kon": 9080}
{"substance": "HSV2-gE_R314I_gI (from UniProt P89475 21-416; P06764 21-256) (receptor)", "Kd": 658, "Response (nm)": 0.446, "koff": 0.00556, "kon": 8450}
{"substance": "HSV2-gE_R314K_gI (from UniProt P89475 21-416; P06764 21-256) (receptor)", "Kd": 583, "Response (nm)": 0.461, "koff": 0.00549, "kon": 9420}
{"substance": "HSV2-gE_R314L_gI (from UniProt P89475 21-416; P06764 21-256) (receptor)", "Kd": 702, "Response (nm)": 0.442, "koff": 0.00521, "kon": 7430}
{"substance": "HSV2-gE_R314M_gI (from UniProt P89475 21-416; P06764 21-256) (receptor)", "Kd": 608, "Response (nm)": 0.519, "koff": 0.00592, "kon": 9730}
{"substance": "HSV2-gE_R314N_gI (from UniProt P89475 21-416; P06764 21-256) (receptor)", "Kd": 1310, "Response (nm)": 0.301, "koff": 0.00748, "kon": 5700}
{"substance": "HSV2-gE_R314P_gI (from UniProt P89475 21-416; P06764 21-256) (receptor)", "Kd": 443, "Response (nm)": 0.557, "koff": 0.00474, "kon": 10700}
{"substance": "HSV2-gE_R314Q_gI (from UniProt P89475 21-416; P06764 21-256) (receptor)", "Kd": 498, "Response (nm)": 0.568, "koff": 0.00535, "kon": 10800}
{"substance": "HSV2-gE_R314S_gI (from UniProt P89475 21-416; P06764 21-256) (receptor)", "Kd": 406, "Response (nm)": 0.585, "koff": 0.00515, "kon": 12700}
{"substance": "HSV2-gE_R314T_gI (from UniProt P89475 21-416; P06764 21-256) (receptor)", "Kd": 575, "Response (nm)": 0.417, "koff": 0.0049, "kon": 8530}
{"substance": "HSV2-gE_R314V_gI (from UniProt P89475 21-416; P06764 21-256) (receptor)", "Kd": 538, "Response (nm)": 0.408, "koff": 0.00487, "kon": 9070}
{"substance": "HSV2-gE_R314Y_gI (from UniProt P89475 21-416; P06764 21-256) (receptor)", "Kd": 600, "Response (nm)": 0.385, "koff": 0.00441, "kon": 7350}
{"substance": "HSV2-gE_R320A_gI (from UniProt P89475 21-416; P06764 21-256) (receptor)", "Kd": 1500, "Response (nm)": 0.295, "koff": 0.00505, "kon": 3360}
{"substance": "HSV2-gE_R320G_gI (from UniProt P89475 21-416; P06764 21-256) (receptor)", "Kd": 1180, "Response (nm)": 0.322, "koff": 0.00462, "kon": 3920}
{"substance": "HSV2-gE_R320H_gI (from UniProt P89475 21-416; P06764 21-256) (receptor)", "Kd": 4750, "Response (nm)": 0.247, "koff": 0.00421, "kon": 886}
{"substance": "HSV2-gE_R320I_gI (from UniProt P89475 21-416; P06764 21-256) (receptor)", "Kd": 406, "Response (nm)": 0.622, "koff": 0.00438, "kon": 10800}
{"substance": "HSV2-gE_R320L_gI (from UniProt P89475 21-416; P06764 21-256) (receptor)", "Kd": 291, "Response (nm)": 0.785, "koff": 0.00389, "kon": 13400}
{"substance": "HSV2-gE_R320M_gI (from UniProt P89475 21-416; P06764 21-256) (receptor)", "Kd": 336, "Response (nm)": 0.722, "koff": 0.00462, "kon": 13700}
{"substance": "HSV2-gE_R320N_gI (from UniProt P89475 21-416; P06764 21-256) (receptor)", "Kd": 828, "Response (nm)": 0.379, "koff": 0.00493, "kon": 5950}
{"substance": "HSV2-gE_R320P_gI (from UniProt P89475 21-416; P06764 21-256) (receptor)", "Kd": 1650, "Response (nm)": 0.267, "koff": 0.00235, "kon": 1420}
{"substance": "HSV2-gE_R320Q_gI (from UniProt P89475 21-416; P06764 21-256) (receptor)", "Kd": 902, "Response (nm)": 0.351, "koff": 0.00539, "kon": 5980}
{"substance": "HSV2-gE_R320S_gI (from UniProt P89475 21-416; P06764 21-256) (receptor)", "Kd": 1050, "Response (nm)": 0.343, "koff": 0.00547, "kon": 5190}
{"substance": "HSV2-gE_R320T_gI (from UniProt P89475 21-416; P06764 21-256) (receptor)", "Kd": 606, "Response (nm)": 0.37, "koff": 0.0042, "kon": 6940}
{"substance": "HSV2-gE_R320V_gI (from UniProt P89475 21-416; P06764 21-256) (receptor)", "Kd": 469, "Response (nm)": 0.52, "koff": 0.00425, "kon": 9060}
{"substance": "HSV2-gE_S338E_gI (from UniProt P89475 21-416; P06764 21-256) (receptor)", "Kd": 348, "Response (nm)": 0.616, "koff": 0.0043, "kon": 12300}
{"substance": "HSV2-gE_S338G_gI (from UniProt P89475 21-416; P06764 21-256) (receptor)", "Kd": 339, "Response (nm)": 0.562, "koff": 0.00438, "kon": 12900}
{"substance": "HSV2-gE_S338L_gI (from UniProt P89475 21-416; P06764 21-256) (receptor)", "Kd": 439, "Response (nm)": 0.467, "koff": 0.00223, "kon": 5080}
